In US6348311B1, “ATM kinase modulation for screening and therapies” (St. Jude Childre's Research Hospital, priority 1999, dated 2002):
Where no end group is shown, it is not given here.

Experiments:
Type in all cases: biochemical
[1] = target: T1, ATM kinase (Homo sapiens, UniProt Q13315); assay: In vitro kinase assay, ATM with GST-peptide / GST-fusion substrates; conditions: for Relative Phosphorylation (%) ATM: GST-peptide substrate, relative to the p53ser15 site;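 as to all read-outs here: immunoprecipitated ATM incubated with [γ-32P]ATP at 30 °C for 20 min, substrates resolved by SDS-PAGE and radiolabel incorporation quantified by PhosphorImager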
T1 construct: The full-length cDNA encoding NH2-terminal, FLAG-tagged wild-type ATM; made in house; host or cells: 293T cells, transient transfection with pcDNA-FLAG-ATMwt, anti-FLAG M2 immunoprecipitate on beads

[2] = target: T2, ATR (Homo sapiens, UniProt Q13535); assay: In vitro kinase assay, ATR with GST-peptide / GST-fusion substrates; conditions: GST-peptide substrate; relative to the p53ser15 site
T2 construct: made in house; host or cells: 293T cells, transient transfection with pBJF-FRPwt, anti-FLAG M2 immunoprecipitate
Protocol: (§1) FIGS. 1A, 1B, and 1C. Phosphorylation of GST-p53 mutant peptides (amino acids 9-21) by ATM, ATR, and DNA-PK in vitro. In vitro kinase assays with immunoprecipitated, transfected flag-tagged ATM (A) or ATR (B) or purified DNA-PK (C) were performed with GST-p53 peptides containing the amino acid substitutions indicated. The amount of 32P-labeled GST-peptides was quantitated with a PhosphorImager and was normalized for each of the kinases to the level of phosphorylation of wild-type GST-p53.
(§2) FIGS. 2A, 2B, and 2C. Phosphorylation of candidate targets of by ATM, ATR and DNA-PK in vitro. GST-peptides containing the putative target sequences were used as substrates for the kinase assay.
Transfection and Kinase Activity Assays. 293T cells were transiently transfected with 10 μg of either pcDNA-FLAG-ATMwt, pcDNA-FLAG-ATMkd, pBJF-FRPwt or pBJF-FRPkd (Cliby et al., EMBO J., 17:159, 1998) using calcium phosphate and harvested two days later. Cells were lysed through sonication in TGN buffer [50 mM Tris (pH 7.5), 50 mM glycerophosphate, 150 mM NaCl, 10% glycerol, 1% Tween 20, 1 mM NaF, 1 mM NaVO4, 1 mM PMSF, […] Pepstatin A, 5 μg/ml leupeptin, 10 μg/ml Aprotinin and 1 mM DTT] as described (Brunn et al., Science, 277:99-101,1997). After centrifugation at 13,000 ×g, 2 mg of extract were incubated with mouse IgG and protein A/G sepharose beads (Calbiochem). FLAG-tagged proteins were then immunoprecipitated with anti-FLAG M2 monoclonal antibody (Eastman Kodak Company) and protein A/G sepharose beads. Immunoprecipitates were washed twice with TGN buffer, once with 100 mM Tris (pH 7.5) plus 0.5 M LiCl, and twice with kinase buffer [10 mM Hepes (pH 7.5), 50 mM glycerophosphate, 50 mM NaCl, 10 mM MgCl2, 10 mM MnCl2, 5 μM ATP, and 1 mM DTT]. Kinase reactions were initiated by resuspending washed beads in 30 μl of kinase buffer containing 10 μCi [γ-^32P]ATP and 1 μg GSTp531-101 and incubated for 30 minutes at 30° C. Proteins were electrophoretically separated by SDS-polyacrylamide gel electrophoresis, transferred to nitrocellulose, and analyzed on a PhosphorImager. FLAG-tagged proteins and GSTp531-101 were subjected to immunoblotting with either anti-FLAG M2 antibody or monoclonal antibodies directed towards the NH2-terminus of p53 (Ab-2 and Ab-6, Calbiochem) as described (Siliciano et al., Genes Dev., 11:3471, 1997).
Phosphorylation of Ser^15 of p53 by ATM and ATR/FRP1 in vitro. […] Proteins from each reaction were separated by SDS polyacrylamide gel electrophoresis (7% gel), transferred to nitrocellulose, and analyzed either on a PhosphorImager or by immunoblotting. Amounts of FLAG-tagged ATM or ATR in each kinase reaction were measured by immunoblotting with anti-FLAG M2 (top panel) and amount of [γ^32P]phosphate incorporated into ATM or ATR during the reaction (lower panel). […] An upper immunoreactive band represents phosphorylated GSTp53 fusion protein. The same exposures were used for ATM, ATR/FRP1 and corresponding substrate proteins.
(§3) Plasmids and GST-fusion protein production. For GST fusion peptide expression vectors, complementary oligonucleotides encoding desired peptides (14 amino acids) were cloned into the BamHI/SmaI site of pGEX-2T (Pharmacia). The constructs were confirmed by restriction enzyme digests and DNA sequencing. To construct the larger GST-p95 (327-391) protein fragment, p95 DNA encoding amino acids 327-391 was amplified by PCR with Pfu polymerase using the following primers: 5′ sense,
In vitro kinase assays and immunoprecipitation. […] Cleared supernatants were immunoprecipitated with anti-Flag M2 antibody and protein A/G agarose, the beads were washed with TGN buffer followed by TGN buffer plus 0.5 M LiCl, and two washes with kinase buffer [20 mM HEPES (pH 7.5), 50 mM NaCl, 10 mM MgCl2, 1 mM dithiothreitol (DTT) and 10 mM MnCl2]. […] ATP and […] of GST-fusion substrate (GST-p53:1-101), in varying concentration of Mn^2+. […]

[3] = target: DNA-PK (Homo sapiens, UniProt P78527); assay: In vitro kinase assay, purified DNA-PK with GST-peptide / GST-fusion substrates; conditions: for Relative Phosphorylation (%) DNA-PK: GST-peptide substrate, relative to the p53ser15 site
Protocol: as §1, §2, §3
In vitro kinase assays and immunoprecipitation. […] Cleared supernatants were immunoprecipitated with anti-Flag M2 antibody and protein A/G agarose, the beads were washed with TGN buffer followed by TGN buffer plus 0.5 M LiCl, and two washes with kinase buffer [20 mM HEPES (pH 7.5), 50 mM NaCl, 10 mM MgCl2, 1 mM dithiothreitol (DTT) and 10 mM MnCl2]. […] ATP and […] of GST-fusion substrate (GST-p53:1-101), in varying concentration of Mn^2+. The kinase reaction was conducted at 30° C. for 20 min and stopped by the addition of SDS-PAGE loading buffer. Proteins were separated on SDS-polyacrylamide gel electrophoresis (SDS-PAGE) and transferred to nitrocellulose. Radiolabeled proteins were visualized and quantitated on a Phosphorimager (Molecular Dynamics). Use of equivalent amounts of flag-tagged ATM or ATR in the different lanes was confirmed by immunoblotting with anti-flag antibody. In some reactions, either supercoiled DNA (pBluescript II KS, Stratagene) or linearized DNA (pBluescript II KS cut with EcoR1) was added ([…]). For endogenous ATM kinase reactions, endogenous ATM was immunoprecipitated from GM0536 lymphhoblasts with ATM monoclonal antibody (D16.11) in M buffer (PBS, 10% glycerol, 0.2% Tween 20, 0.3% NP-40, 1 mM NaF, 1 mM Na3VO4, 1 mM PMSF, 1x protease inhibitor mixture]. After washing with M buffer and kinase buffer, in vitro kinase reactions were carried out according to procedures described above. The DNA-PK in vitro kinase reaction was performed as previously described (Gottlieb and Jackson, 1993), using 20 ng each of DNA-PKcs or DNA-PK (20 ng DNA-PKcs premixed with 20 ng Ku 70/80).

[4] = GST-conjugated 14 amino acid peptides

T1 sequence (Q13315 whole entry, the tested form may be a part): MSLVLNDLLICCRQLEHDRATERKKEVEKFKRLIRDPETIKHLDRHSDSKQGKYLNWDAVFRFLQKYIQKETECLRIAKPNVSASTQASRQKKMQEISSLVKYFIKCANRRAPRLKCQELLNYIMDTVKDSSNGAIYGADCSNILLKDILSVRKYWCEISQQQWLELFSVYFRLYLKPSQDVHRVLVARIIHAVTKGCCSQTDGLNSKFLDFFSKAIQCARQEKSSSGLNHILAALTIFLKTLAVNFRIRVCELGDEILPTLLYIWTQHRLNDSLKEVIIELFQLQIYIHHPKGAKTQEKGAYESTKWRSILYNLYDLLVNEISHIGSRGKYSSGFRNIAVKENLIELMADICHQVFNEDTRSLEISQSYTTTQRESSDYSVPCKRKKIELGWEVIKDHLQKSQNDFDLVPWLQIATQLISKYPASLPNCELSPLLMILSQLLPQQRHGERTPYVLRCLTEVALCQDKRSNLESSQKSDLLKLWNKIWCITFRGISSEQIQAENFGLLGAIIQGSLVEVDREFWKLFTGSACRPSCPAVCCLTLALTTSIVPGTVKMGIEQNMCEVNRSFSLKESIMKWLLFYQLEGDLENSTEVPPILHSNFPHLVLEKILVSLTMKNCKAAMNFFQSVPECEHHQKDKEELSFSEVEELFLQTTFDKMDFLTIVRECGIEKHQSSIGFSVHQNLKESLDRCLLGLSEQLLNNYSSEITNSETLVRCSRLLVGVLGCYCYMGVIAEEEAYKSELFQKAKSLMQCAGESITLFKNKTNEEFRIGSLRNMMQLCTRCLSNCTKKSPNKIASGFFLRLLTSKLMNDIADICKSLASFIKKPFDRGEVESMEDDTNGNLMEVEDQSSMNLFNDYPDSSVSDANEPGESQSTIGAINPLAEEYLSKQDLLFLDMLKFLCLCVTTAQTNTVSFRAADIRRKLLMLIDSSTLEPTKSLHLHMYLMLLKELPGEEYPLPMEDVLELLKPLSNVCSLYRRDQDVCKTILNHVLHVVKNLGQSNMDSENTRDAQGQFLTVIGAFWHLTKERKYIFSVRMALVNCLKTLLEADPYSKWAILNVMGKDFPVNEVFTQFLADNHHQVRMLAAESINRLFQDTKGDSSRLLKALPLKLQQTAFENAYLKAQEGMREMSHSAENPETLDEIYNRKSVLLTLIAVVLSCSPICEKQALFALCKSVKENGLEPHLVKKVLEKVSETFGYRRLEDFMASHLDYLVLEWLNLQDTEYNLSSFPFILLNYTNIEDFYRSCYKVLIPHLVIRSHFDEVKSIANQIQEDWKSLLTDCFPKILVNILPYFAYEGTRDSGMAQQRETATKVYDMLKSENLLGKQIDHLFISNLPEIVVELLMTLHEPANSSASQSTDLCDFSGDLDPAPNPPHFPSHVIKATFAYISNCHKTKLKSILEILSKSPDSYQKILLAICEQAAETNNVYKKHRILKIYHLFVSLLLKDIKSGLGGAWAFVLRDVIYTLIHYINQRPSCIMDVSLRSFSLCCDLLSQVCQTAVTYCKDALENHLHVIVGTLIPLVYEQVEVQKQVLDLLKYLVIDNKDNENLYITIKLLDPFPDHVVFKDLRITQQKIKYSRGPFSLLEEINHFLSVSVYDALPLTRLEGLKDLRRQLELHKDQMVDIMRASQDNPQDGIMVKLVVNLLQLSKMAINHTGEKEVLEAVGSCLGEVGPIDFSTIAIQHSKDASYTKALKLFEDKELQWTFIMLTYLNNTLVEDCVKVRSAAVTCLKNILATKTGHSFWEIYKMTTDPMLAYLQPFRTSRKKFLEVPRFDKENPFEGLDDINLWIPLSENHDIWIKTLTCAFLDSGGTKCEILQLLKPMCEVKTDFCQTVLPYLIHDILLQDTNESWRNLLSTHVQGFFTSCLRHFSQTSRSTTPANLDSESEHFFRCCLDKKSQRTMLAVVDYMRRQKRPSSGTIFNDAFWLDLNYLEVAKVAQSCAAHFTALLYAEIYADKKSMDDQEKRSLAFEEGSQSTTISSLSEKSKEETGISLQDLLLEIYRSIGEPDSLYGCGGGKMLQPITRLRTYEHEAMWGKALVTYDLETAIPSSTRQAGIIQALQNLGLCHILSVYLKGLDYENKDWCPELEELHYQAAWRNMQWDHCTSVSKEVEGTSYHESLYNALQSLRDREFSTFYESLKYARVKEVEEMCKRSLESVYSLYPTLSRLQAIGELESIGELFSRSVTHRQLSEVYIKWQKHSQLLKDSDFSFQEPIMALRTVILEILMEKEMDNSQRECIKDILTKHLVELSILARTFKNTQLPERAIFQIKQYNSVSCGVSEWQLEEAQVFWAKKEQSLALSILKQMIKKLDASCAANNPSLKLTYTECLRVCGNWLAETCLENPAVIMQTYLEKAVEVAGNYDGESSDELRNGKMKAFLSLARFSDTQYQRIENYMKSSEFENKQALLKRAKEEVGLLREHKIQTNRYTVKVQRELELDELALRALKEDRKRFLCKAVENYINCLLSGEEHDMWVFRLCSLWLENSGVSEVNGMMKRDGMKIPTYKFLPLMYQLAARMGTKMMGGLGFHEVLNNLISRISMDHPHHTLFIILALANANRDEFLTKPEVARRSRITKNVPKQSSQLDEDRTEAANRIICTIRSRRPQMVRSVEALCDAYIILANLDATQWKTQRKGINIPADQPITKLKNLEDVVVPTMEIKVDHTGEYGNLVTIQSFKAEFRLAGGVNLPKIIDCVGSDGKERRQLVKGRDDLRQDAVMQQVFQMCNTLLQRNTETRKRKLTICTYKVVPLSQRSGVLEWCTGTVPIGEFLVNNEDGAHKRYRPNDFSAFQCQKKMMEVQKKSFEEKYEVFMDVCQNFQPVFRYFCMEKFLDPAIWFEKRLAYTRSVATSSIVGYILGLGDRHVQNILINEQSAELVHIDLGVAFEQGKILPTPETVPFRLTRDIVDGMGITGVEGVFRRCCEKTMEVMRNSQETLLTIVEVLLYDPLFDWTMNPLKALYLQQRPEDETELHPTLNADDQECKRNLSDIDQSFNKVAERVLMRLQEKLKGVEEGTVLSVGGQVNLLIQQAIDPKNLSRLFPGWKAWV

| Substance | Relative Phosphorylation (%) ATM [1] [%] | Relative Phosphorylation (%) ATR [2] [%] | Relative Phosphorylation (%) DNA-PK [3] [%] | phosphorylation of GST-peptide substrate by ATM (in words) [1, 4] | phosphorylation of GST-peptide substrate by DNA-PK (in words) [3, 4] |
| --- | --- | --- | --- | --- | --- |
| DNA 5B: GST-peptide QPEPPVSQSEISEP (SEQ ID NO:38), S72 (also: GST fusion) | 3 | 145 | 15 | – | – |
| DNA LIG-IV: GST-peptide DLKLGVSQQTIFSV (SEQ ID NO:39), S132 (also: GST fusion) | 5 | 36 | 48 | not by ATM | phosphorylated by DNA-PKcs |
| MRE11 (SQ1): GST-peptide QQLFYISQPGSSVV (SEQ ID NO:11), S264 (also: GST fusion) | 20 | 48 | 10 | – | – |
| MRE11 (SQ2): GST-peptide FSVLRFSQKFVDRV (SEQ ID NO:12), S386 (also: GST fusion) | <1 | 17 | <1 | – | – |
| MRE11 (SQ3): GST-peptide RARALRSQSEESAS (SEQ ID NO:13), S531 (also: GST fusion) | <1 | 13 | <1 | – | – |
| PI-3K: GST-peptide DLLMYLSQLVQALK (SEQ ID NO:26), S397 (also: GST fusion) | <1 | 150 | <1 | – | – |
| PTS (123F2): GST-peptide WETPDLSQAEIEQK (SEQ ID NO:37), S61 (not fully specified (N-terminus); also: GST fusion) | 111 | 40 | 33 | – | – |
| RAD17 (SQ1): GST-peptide TWSLPLSQDSASEL (SEQ ID NO:18), S646 (not fully specified (N-terminus); also: GST fusion) | 81 | 733 | 97 | – | – |
| RAD17 (SQ2): GST-peptide ASELPASQPQPFSA (SEQ ID NO:19), S656 (not fully specified (N-terminus); also: GST fusion; listed as Homo sapiens) | 91 | 1065 | 25 | – | – |
| RPA34kD (SQ1): GST-peptide FPAPAPSQAEKKSR (SEQ ID NO:40), S33 (not fully specified (N-terminus); also: GST fusion; listed as Homo sapiens) | <1 | 5 | <1 | – | – |
| RPA34kD (SQ2): GST-peptide IVPCTISQLLSATL (SEQ ID NO:41), S52 (not fully specified (N-terminus); also: GST fusion; listed as Homo sapiens) | <1 | 31 | <1 | – | – |
| RPA34kD (SQ3): GST-peptide TGNVEISQVTIVGI (SEQ ID NO:42), S72 (not fully specified (N-terminus); also: GST fusion; listed as Homo sapiens) | <1 | 8 | <1 | – | – |
| WRN (SQ1): GST-peptide EKAYSSSQPVISAQ (SEQ ID NO:21), S1141 (not fully specified (N-terminus); also: GST fusion; listed as Homo sapiens) | 25 | 49 | 14 | – | – |
| WRN (SQ2): GST-peptide TIGMHLSQAVKAGC (SEQ ID NO:20), S1292 (not fully specified (N-terminus); also: GST fusion; listed as Homo sapiens) | 10 | 33 | 5 | – | – |
